The text below walks through data of publication PMC12241074.

This assay addresses mouse IgM (mouse).

As for “recombinant mouse polymeric immunoglobulin receptor (from UniProt O70570 19-771)”, the GSDMD level (Western blot) in primary mouse AT2 treated for 16 h with iKP + r pIgR (0.5 ug/mL) + IgM (0.5 ug/mL), compared with non-treated cells was determined as 326% and the GSDMD-NT level (Western blot) in primary mouse AT2 treated for 16 h with iKP + r pIgR (0.5 ug/mL) + IgM (0.5 ug/mL), compared with non-treated cells was 13 fold.
